T1: bovine lipoprotein lipase (bovine) (UniProt P11151)
T1 sequence: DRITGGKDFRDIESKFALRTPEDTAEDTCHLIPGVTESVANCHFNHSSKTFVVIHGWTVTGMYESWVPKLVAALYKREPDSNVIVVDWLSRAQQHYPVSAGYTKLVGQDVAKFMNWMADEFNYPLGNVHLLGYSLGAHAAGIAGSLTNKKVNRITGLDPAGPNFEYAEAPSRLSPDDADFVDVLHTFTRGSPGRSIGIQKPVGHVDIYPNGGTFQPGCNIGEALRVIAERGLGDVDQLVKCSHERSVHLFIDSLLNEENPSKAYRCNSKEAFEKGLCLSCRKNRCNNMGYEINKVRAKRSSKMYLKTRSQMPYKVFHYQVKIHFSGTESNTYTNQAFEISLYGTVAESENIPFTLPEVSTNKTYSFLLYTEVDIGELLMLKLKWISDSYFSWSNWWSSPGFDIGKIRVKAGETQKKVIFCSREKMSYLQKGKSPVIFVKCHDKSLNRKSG

B1: coiled-coil domain of human ANGPTL4 E15K (residues 1–159) (domain or fragment)
chain: MGPVQSKSPRFASWDKMNVLAHGLLQLGQGLREHAERTRSQLSALERRLSACGSACQGTEGSTDLPLAPESRVDPEVLHSLQTQLKAQNSRIQQLFHKVAQQQRHLEKQHLRIQHLQSQFGLLDHKHLDHEVAKPARRKRLPEMAQPVDPAHNVSRLHRL

Experiments:
[1] = molecular target: coiled-coil domain of wild-type human ANGPTL4 (residues 1–159) (human); assay: SDS-PAGE before and after reduction (disulfide-linked oligomers); Coomassie blue-stained gel of purified ANGPTL4 1–159 before and after reduction and alkylation; optical scanning of lanes of two-fold serial dilutions
[2] = molecular target: T1, bovine lipoprotein lipase (bovine); conditions: scale: molecules of LPL per ANGPTL4 molecule per min
[3] = molecular target: T1, bovine lipoprotein lipase (bovine); conditions: scale: molecules LPL per ANGPTL4 molecule per min

Molecule | percent of the total protein that is covalent (disulfide-linked) dimer [1] [%] | stoichiometry N [1] | catalytic efficacy of unfolding of LPL's hydrolase domain (pulse-labelling HDX-MS, bimodality of peptide 131–165); 10 µM LPL with 0.25, 0.5 and 1 µM ANGPTL4 1–159, 25°C, early time points [2] | catalytic efficacy of unfolding of LPL's hydrolase domain (pulse-labelling HDX-MS, peptide 131–165); 10 µM LPL with 0.5, 1 and 2 µM ANGPTL4 1–159/E15K, 25°C, linear phases of the progress curves [3]
coiled-coil domain of wild-type human ANGPTL4 (residues 1–159) (domain or fragment) | 10 | 2 | 1.6 | 
B1 |  |  |  | 0.6
